Data on two molecules can be found in patent US20230051715A1 (MABWELL THERAPEUTICS, published 2023).

For test [1], the target named is T1, human C1s mutant M5 (K336G) (human, UniProt P09871 16-688).
T1 construct: The entry is the mutant itself
T1 sequence: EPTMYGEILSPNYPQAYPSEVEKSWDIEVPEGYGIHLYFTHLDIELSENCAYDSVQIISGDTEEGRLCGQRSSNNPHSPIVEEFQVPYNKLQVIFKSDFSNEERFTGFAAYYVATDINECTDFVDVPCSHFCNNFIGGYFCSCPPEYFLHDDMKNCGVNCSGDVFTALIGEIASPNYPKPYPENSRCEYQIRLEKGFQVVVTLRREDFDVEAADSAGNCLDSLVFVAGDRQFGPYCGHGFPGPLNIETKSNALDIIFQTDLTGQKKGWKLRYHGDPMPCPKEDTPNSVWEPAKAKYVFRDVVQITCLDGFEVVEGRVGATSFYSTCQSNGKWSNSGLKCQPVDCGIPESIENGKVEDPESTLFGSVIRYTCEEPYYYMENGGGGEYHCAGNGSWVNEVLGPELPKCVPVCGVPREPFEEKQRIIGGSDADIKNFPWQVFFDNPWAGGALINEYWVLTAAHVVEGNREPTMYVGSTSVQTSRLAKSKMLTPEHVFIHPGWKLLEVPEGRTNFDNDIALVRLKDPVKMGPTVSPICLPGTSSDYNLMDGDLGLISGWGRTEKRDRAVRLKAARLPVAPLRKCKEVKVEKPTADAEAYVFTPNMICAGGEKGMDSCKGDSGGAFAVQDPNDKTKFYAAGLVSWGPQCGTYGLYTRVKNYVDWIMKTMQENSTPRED
Put plainly: ELISA, plate coated with human C1s mutant M5: K336G, OD450nm. The procedure:
ELISA was carried out by first coating 96-well plates with 200 ng/well of full-length or truncated C1s proteins overnight. The next morning, plates were blocked with SuperBlock T20 blocking buffer (Thermo Scientific 37536) for 1 h with gentle shaking. Then, various concentrations of anti-C1s antibodies diluted in SuperBlock T20 blocking buffer were added to the plates and incubated for 1 h with gentle shaking. Mouse IgG (Sigma-Aldrich 15381) and human IgG1 (BioXCell BP0297) were used as negative controls. The plates were washed before incubating with HRP conjugated secondary antibodies diluted in SuperBlock T20 blocking buffer (goat anti-mouse IgG (H+L) cross-adsorbed secondary antibody HRP (Invitrogen G-21040) or goat anti-human IgG antibody, HRP conjugate (Millipore AP309P)) for 1 h with gentle shaking. At last, the plates were washed and color developed with ELISA liquid HRP substrate (Sigma-Aldrich), followed by stopping the reaction with addition of 1M H₂SO₄ in the same volume as the ELISA liquid substrate. Bound antibody was measured by absorbance at OD₄₅₀ₙₘ.
Binding of anti-C1s antibodies to mutants M1-M20 of human C1s was measured by ELISA as described in Example 4, and results are shown in FIGS. 6B-6U. […]
(In general: ELISA stands for enzyme-linked immunosorbent assay.)

In test [2] the target is T2, cynomolgus monkey C1s (produced in house) (cynomolgus monkey, UniProt P09871 16-685 (human entry), limits assumed).
T2 construct: also called CyC1s
T2 chain: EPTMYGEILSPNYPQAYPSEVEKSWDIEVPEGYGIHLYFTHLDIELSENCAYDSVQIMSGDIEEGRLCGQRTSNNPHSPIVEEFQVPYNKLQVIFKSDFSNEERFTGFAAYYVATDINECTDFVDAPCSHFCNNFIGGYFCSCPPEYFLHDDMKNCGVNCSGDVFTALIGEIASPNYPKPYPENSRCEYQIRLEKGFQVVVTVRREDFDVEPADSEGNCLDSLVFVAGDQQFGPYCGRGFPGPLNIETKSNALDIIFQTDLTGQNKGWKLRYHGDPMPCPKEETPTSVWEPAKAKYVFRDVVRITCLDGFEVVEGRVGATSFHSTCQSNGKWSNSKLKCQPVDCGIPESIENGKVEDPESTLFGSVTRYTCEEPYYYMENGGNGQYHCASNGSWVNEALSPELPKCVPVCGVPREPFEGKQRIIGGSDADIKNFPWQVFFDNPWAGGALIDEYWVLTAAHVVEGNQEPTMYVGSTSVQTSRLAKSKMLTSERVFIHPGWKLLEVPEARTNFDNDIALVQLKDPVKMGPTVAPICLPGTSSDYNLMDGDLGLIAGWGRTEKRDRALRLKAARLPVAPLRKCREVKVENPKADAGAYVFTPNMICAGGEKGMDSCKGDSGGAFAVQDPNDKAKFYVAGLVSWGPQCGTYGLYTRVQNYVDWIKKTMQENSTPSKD
Put plainly: BLI (Octet RED96e), antibody on AHC biosensor; C1s Species: Cyno Monkey; R^2 0.9996. An excerpt:
At last, analyte was dissociated in 1×KB for 360 sec. Data analysis was done using OCTET® Data Analysis HT Software (Sartorius AG).
In general terms: BLI is a label-free optical method that tracks binding on a fibre tip over time.

One may read the EC50 as the concentration needed to bring the measured effect to its halfway point. The Kd is a measure of binding affinity in units of concentration. For orientation: koff means the first-order rate constant of dissociation. As a reminder, the kon is a measure of how fast the partners come together.

B1: Anti-C1s antibody hz2-7(H1L2) (antibody, V domains shown)
VH: EVQLLESGGGLVQPGGSLRLSCAASGFTFSNYFMNWVRQAPGKGLEWVSEIRLKFTNYATHYADSVKGRFTISRDDSKSTLYLQMNSLRAEDTAVYYCTRDYGSRNGYFDYWGQGTLVTVSS
VL: DIVMTQTPLSLPVTPGEPASISCRSSKSLLHSNGNTFLYWFLQKPGQSPQLLIYRMSNLASGVPDRFSGSGSGTDFTLKISRVEAEDVGVYYCMQHLEYPYTFGGGTKLEIKR
notes: Humanized, human IgG1 / kappa; also called hz2-7(1L2)
In test [1], B1 registered an EC50 of 0.015 µg/mL.

B2: Anti-C1s antibody 2-8 (antibody, V domains shown)
VH: EVQLQQSGAELVRPGALVKLSCKASGFNIKEYYMHWVKQRPEQGLEWIGWIDPENGDTIYDPKFQGKASITADTSSNTAYLQLSSLTSEDTAVYYCARSRLFFAYWGQGTLVTVSA
VL: DIVMTQSHKFMSTSVGDRVSFTCKASQDVRTAVDWYQQKPGQSPKLLIYSASYRYTGVPDRFTGTGSGTDFTFTISSVQAEDLAVYFCQQQYTTPYTFGGGTKLEIKT
notes: the HC/LC entries may hold it too; also called clone 2-8
In test [2], B2 returned a Kd of 1.1 nM, a koff of 0.00028 s⁻¹ and a kon of 260000 M⁻¹ s⁻¹.
